Where a chain is given by its changes, count along the chain named.
B1: 5107 (protein)
chain: MTPEEIKANVEAFYAALASGDLEKAKALFDPGTTITLWDGTTFTSLEEFLAWFEKQFKASKDAKREIVSMKVEGDTVRVLVRLTYTKDGKEQVVDLLQLIKVV
B2: 5122 (protein)
chain: B1 chain with K7F, E11K, E23A, K24A, E47D, V68L, K71E, T86V, Q92E, V102W
B3: 5112 (protein)
chain: B1 chain with K7R, E11R, K24A, M70L, K71E, T76V, T86V, Q92E, I100L, V102F
B4: 5113 (protein)
chain: B1 chain with K7R, K24A, K58E, V68L, M70L, K71E, V72I, D75N, I100L, V102F
B5: 5109 (protein)
chain: B1 chain with K7R, E11K, K71E, V72I, E73N, K87V, K90E, Q92K, I100L, V102F
B6: 5117 (protein)
chain: B1 chain with P3D, K7R, E11R, K24T, A59T, M70L, K71E, Q92E, I100L, V102F
B7: 5116 (protein)
chain: MTPEEIRANVERFYAALASGDLDTAKALFDPGTTITLWDGTTFTSLEEFLAWFEKQFKASKDAKREIVELEIEGNVVRVLVRLTYVKDGKEQVVDLLQLLKFV
B8: 5287 (protein)
chain: MTPEAIRENVRAFYAALASGDWAAAKALFDPGVTITLWDGTTFTSVEEFRAWFEKQFKTSKDALREIVSMEVEGDVVRVLVRLTFVRDGKEQVVDLLQLFKFV
B9: 5295 (protein)
chain: B8 chain with A5E, E8A, W22L, K55E, K58E, V76T, V86T, D88N, K90E, Q92K
B10: 5288 (protein)
chain: B8 chain with R7I, E8A, R11K, W22L, K55E, V68E, V76T, Q92E
B11: 5291 (protein)
chain: B8 chain with A5E, A12R, W22L, A23E, A24T, K55E, K58Q, V72I, Q92E
B12: 5293 (protein)
chain: B8 chain with A5E, E8A, A12R, W22L, A24T, K26E, E47A, V68E, V72I, V76T
B13: 5111 (protein)
chain: MTPEEIRANVEAFYAALASGDLEAAKALFDPGTTITLWDGTTFTSLEEFLAWFEKQFETSKDAKREIVSLEIEGDTVRVLVRLTYTKNGEVKEVDLLQLLKFV
B14: 5119 (protein)
chain: B13 chain with E5Q, A12R, A24T, E58K, T59A, K87V, N88D
B15: 5294 (protein)
chain: MTPEEIRANVRAFYAALASGDLEAAKALFDPGVTITLWDGTTFTSVEEFRAWFEEQFQTSKDALREIESLEVEGDVVRVLVRLTFTRDGKVEEVDLLQLFKFV
B16: 5289 (protein)
chain: MTPEEIRANVERFYAALASGDLAAAKALFDPGVTITLWDGTTFTSVEEFRAWFEEQFQTSKDALREIVSMEIDGDTVRVLVRLTFVRDGEEQEVDLLQLFKFV
B17: 5108 (protein)
chain: MTPEEIIENVKAFYAALASGDLEAAKALFDPGTTITLWDGTTFTSLEEFLEWFEKQFEASKDAKREIKSIEVEGNVVKVLVRLTYVKDGKEKVVDLLQLLKFV
B18: 5123 (protein)
chain: MTPEKIRENVENFYAALASGDLEKAKALFDPGTTITLWDGTTFTSLEEFLAWFEKQFKASKDAKREIKSLEIEGDTVKVLVRLTYTVNGKEKTVDLLQLLKFV
B19: 5105 (protein)
chain: MTPEEIIANVKKFYEALASGDLATAKSLFDPGTTITLWDGTTFTSLEEFLAWFEKQFKASKDAKREIVSIEVDGNVVKVLVRLTYTVDGKEKVVDLLQLLKFV
B20: 5106 (protein)
chain: B19 chain with P3E, K11E, E15A, A23E, S27A, D73E, N75D, V76T
B21: 5115 (protein)
chain: B17 chain with E8A, A12K, A24T, E51A, K68V, E73K, V76T, K92Q
B22: 5114 (protein)
chain: B19 chain with K12N, E15A, A23E, T24A, S27A, I70M, D73E, K90E
B23: 5110 (protein)
chain: B17 chain with A12K, A15E, A24T, A27S, K68L, V86T
B24: 5118 (protein)
chain: B19 chain with K12A, E15A, T24A, S27A, E47D, V68L, S69D, D73E, N75D, K78R
B25: 5292 (protein)
chain: MTPEEIIENVKNFYAALASGDLEKAKALFDPGVTITLWDGTTFTSVEEFRKWFEEQFKTSKDALREIKSIEVEGDVVRVLVRLTFVRDGEVQEVDLLQLFKFV
B26: 5121 (protein)
chain: MTPEEIKENVKKFYEALASGDLETAKSLFDPGTTITLWDGTTFTSLEEFLAWFEKQFDASKDAKREIVSMEIKGNEVKVLVRLTYTKDGKEQTVDLLQLLKFV
B27: 5120 (protein)
chain: MTPEEIRENVLRFYEALASGDLETAKALFDPGTTITLWDGTTFTSLEEFLAWFEEQFDTSKDAKREILSLEIEGDVVRVLVRLTYVKDGEEKVVDLLQLLKWV
B28: 5102 (protein)
chain: MSEEQIRQNLRRFYEALDSGDAITAASLFDPGVTITLWDGTTFTSVEEFREWFESQFSTSKDALREISSLEVRGDTVEVTVRLSFTRNGQKHTVDLLQLFKFVGNRVVADRVYVNPTG
B29: 5101 (protein)
chain: MSEEQIRQNLRRFYEALDSGDAITAASLFDPGVTITLWDGTTFTSVEEFREWFESQFSTSKDALREISSLEVRGDTVEVTVRLSFTRNGQKHTVDLLQLFKFVGGGGGGNRVVADRVYVNPTG
B30: 5290 (protein)
chain: MTPEEIIENVRRFYAALASGDLETAKSLFDPGVTITLWDGTTFTSVEEFRAWFEAQFQTSKDALREIVSIEVEGDVVRVLVRLTFTRDGQTQEVDLLQLFKFV

test system: SmLux; test: Computationally generated LgLux variants expressed in E. coli, tested in lysates with SmLux and substrate 1c; type: biochemical; details: 20 uM SmLux, 50 uM substrate 1c
Protocol: LgLux sequences were designed computationally, and their activity measured as depicted schematically in FIG. 45.
A library of the computationally generated LgLux variants were expressed in E. coli and tested in lysates. 20 uM of SmLux and 50 uM of substrate 1c was used for the screening.
LgLux_4039 sequence is as set forth in SEQ ID NO:2773. MBIO-5103 through MBIO-5124, MBIO-5261 through MBIO-5295, MBIO-5101, and MBIO-5102 (SEQ ID NO:2815-SEQ ID NO:2873, respectively) are computationally generated LgLux. The sequences and activity of these LgLux are shown below in Table 21.
MBIO-5358 and MBIO-5360 through MBIO-5381 (SEQ ID NO:2774-SEQ ID NO:2796, respectively) are computationally generated LgLux.

| Molecule | Fold change upon SmLux peptide addition |
| --- | --- |
| B1 | 0.99 |
| B2 | 1.04 |
| B3 | 0.93 |
| B4 | 1.15 |
| B5 | 0.98 |
| B6 | 1.05 |
| B7 | 1.11 |
| B8 | 1.1 |
| B9 | 1.28 |
| B10 | 1.6 |
| B11 | 1.02 |
| B12 | 3.78 |
| B13 | 1.01 |
| B14 | 0.98 |
| B15 | 1.46 |
| B16 | 1.92 |
| B17 | 0.92 |
| B18 | 1.09 |
| B19 | 1 |
| B20 | 1 |
| B21 | 3.07 |
| B22 | 1.38 |
| B23 | 0.97 |
| B24 | 1.05 |
| B25 | 6.75 |
| B26 | 1.29 |
| B27 | 1.09 |
| B28 | 2.2 |
| B29 | 0.87 |
| B30 | 1.11 |

same assay, conditions: 50 uM substrate 1c, before SmLux peptide addition

| Molecule | Baseline Signal (Normalized by expression) |
| --- | --- |
| B1 | 167.8 |
| B2 | 146.2 |
| B3 | 174.4 |
| B4 | 180.6 |
| B5 | 169 |
| B6 | 154.8 |
| B7 | 162.6 |
| B8 | 174.8 |
| B9 | 186.4 |
| B10 | 170.8 |
| B11 | 170.2 |
| B12 | 166.2 |
| B13 | 166.2 |
| B14 | 155.6 |
| B15 | 175.2 |
| B16 | 173.8 |
| B17 | 167.4 |
| B18 | 145.6 |
| B19 | 167.4 |
| B20 | 169.8 |
| B21 | 165 |
| B22 | 271.8 |
| B23 | 167.6 |
| B24 | 152 |
| B25 | 168.6 |
| B26 | 126.6 |
| B27 | 148.4 |
| B28 | 2169.2 |
| B29 | 229.6 |
| B30 | 162.2 |

Reference: patent US20260250737A1, “Engineered Luciferases and Luciferin Substrates” (Monod Bio, Inc., priority 2023, published 2026)
